Legend:
[1] = molecular target: 9C2 (Vγ5Vδ1) γδ TCR/CD3 complex, full length (human) (UniProt B7Z8K6); experiment: cryo-EM structure
[2] = molecular target: G115 (Vγ9Vδ2) γδ TCR/CD3 complex, full length (human) (UniProt A0JD36); experiment: cryo-EM structure
Chain of UniProt A0JD36 (A0JD36 whole entry, looked up, stated change not applied, one chain of several): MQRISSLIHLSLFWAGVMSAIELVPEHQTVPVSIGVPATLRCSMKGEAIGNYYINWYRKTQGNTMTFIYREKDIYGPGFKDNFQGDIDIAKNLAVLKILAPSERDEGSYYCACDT

stoichiometry N [1]	stoichiometry N [2]	Substance
2		9C2 (Vγ5Vδ1) γδ TCR/CD3 complex, full length (from UniProt B7Z8K6;P0CF51;P07766;P09693;P04234;P20963)
	2	OKT3 Fab

Reference: paper doi:10.1101/2024.07.19.604350
